± gives the standard deviation of the averaged measurements.
Assay: total protein half-life in vivo (active degradation + dilution); higher = more stable protein
[1] = E. coli NCM3722 delta-clpP delta-lon delta-hslV, growth: N-lim chemostat, doubling time 6 h
[2] = wild type E. coli NCM3722, growth: C-lim chemostat, doubling time 6 h
[3] = wild type E. coli NCM3722, growth: N-lim chemostat, doubling time 12 h
[4] = E. coli NCM3722 delta-clpP, growth: N-lim chemostat, doubling time 6 h
[5] = E. coli NCM3722 delta-lon, growth: N-lim chemostat, doubling time 6 h
[6] = E. coli NCM3722 delta-smpB, growth: N-lim chemostat, doubling time 6 h
[7] = wild type E. coli NCM3722, growth: C-lim chemostat, doubling time 3 h
[8] = wild type E. coli NCM3722, growth: C-lim chemostat, doubling time 12 h
[9] = wild type E. coli NCM3722, growth: N-lim chemostat, doubling time 6 h
[10] = wild type E. coli NCM3722, growth: P-lim chemostat, doubling time 6 h
[11] = wild type E. coli NCM3722, growth: P-lim chemostat, doubling time 12 h
[12] = E. coli NCM3722 delta-hslV, growth: N-lim chemostat, doubling time 6 h

Row | Sequence | total protein half-life in vivo [1] [h] | total protein half-life in vivo [2] [h] | total protein half-life in vivo [3] [h] | total protein half-life in vivo [4] [h] | total protein half-life in vivo [5] [h] | total protein half-life in vivo [6] [h] | total protein half-life in vivo [7] [h] | total protein half-life in vivo [8] [h] | total protein half-life in vivo [9] [h] | total protein half-life in vivo [10] [h] | total protein half-life in vivo [11] [h] | total protein half-life in vivo [12] [h]
1 | MKTKIPDAVLAAEVSRRGLVKTTAIGGLAMASSALTLPFSRIAHAVDSAIPTKSDEKVIWSACTVNCGSRCPLRMHVVDGEIKYVETDNTGDDNYDGLHQVRACLRGRSMRRRVYNPDRLKYPMKRVGARGEGKFERISWEEAYDIIATNMQRLIKEYGNESIYLNYGTGTLGGTMTRSWPPGNTLVARLMNCCGGYLNHYGDYSSAQIAEGLNYTYGGWADGNSPSDIENSKLVVLFGNNPGETRMSGGGVTYYLEQARQKSNARMIIIDPRYTDTGAGREDEWIPIRPGTDAALVNGLAYVMITENLVDQAFLDKYCVGYDEKTLPASAPKNGHYKAYILGEGPDGVAKTPEWASQITGVPADKIIKLAREIGSTKPAFISQGWGPQRHANGEIATRAISMLAILTGNVGINGGNSGAREGSYSLPFVRMPTLENPIQTSISMFMWTDAIERGPEMTALRDGVRGKDKLDVPIKMIWNYAGNCLINQHSEINRTHEILQDDKKCELIVVIDCHMTSSAKYADILLPDCTASEQMDFALDASCGNMSYVIFNDQVIKPRFECKTIYEMTSELAKRLGVEQQFTEGRTQEEWMRHLYAQSREAIPELPTFEEFRKQGIFKKRDPQGHHVAYKAFREDPQANPLTTPSGKIEIYSQALADIAATWELPEGDVIDPLPIYTPGFESYQDPLNKQYPLQLTGFHYKSRVHSTYGNVDVLKAACRQEMWINPLDAQKRGIHNGDKVRIFNDRGEVHIEAKVTPRMMPGVVALGEGAWYDPDAKRVDKGGCINVLTTQRPSPLAKGNPSHTNLVQVEKV | 5.175 ± 0.011 | 5.91 | 6.94 | – | – | – | – | – | – | – | – | –
2 | MNMKKLATLVSAVALSATVSANAMAKDTIALVVSTLNNPFFVSLKDGAQKEADKLGYNLVVLDSQNNPAKELANVQDLTVRGTKILLINPTDSDAVGNAVKMANQANIPVITLDRQATKGEVVSHIASDNVLGGKIAGDYIAKKAGEGAKVIELQGIAGTSAARERGEGFQQAVAAHKFNVLASQPADFDRIKGLNVMQNLLTAHPDVQAVFAQNDEMALGALRALQTAGKSDVMVVGFDGTPDGEKAVNDGKLAATIAQLPDQIGAKGVETADKVLKGEKVQAKYPVDLKLVVKQ | 3.56 ± 0.29 | 6.14 ± 1.1 | 10.9 ± 0.88 | 5.92 ± 0.94 | 6.39 ± 0.68 | 6.26 ± 0.56 | 3.27 ± 0.035 | 9.24 ± 0.57 | 6.13 ± 0.6 | 6.05 ± 0.068 | 11.5 ± 0.92 | –
3 | MRTVKVFEEAWPLHTPFVIARGSRSEARVVVVELEEEGIKGTGECTPYPRYGESDASVMAQIMSVVPQLEKGLTREELQKILPAGAARNALDCALWDLAARRQQQSLADLIGITLPETVITAQTVVIGTPDQMANSASTLWQAGAKLLKVKLDNHLISERMVAIRTAVPDATLIVDANESWRAEGLAARCQLLADLGVAMLEQPLPAQDDAALENFIHPLPICADESCHTRSNLKALKGRYEMVNIKLDKTGGLTEALALATEARAQGFSLMLGCMLCTSRAISAALPLVPQVSFADLDGPTWLAVDVEPALQFTTGELHL | – | 6.31 ± 1.1 | 11.2 ± 2.8 | – | 5.93 ± 1.4 | 4.33 ± 0.052 | 2.73 ± 0.18 | 9.313 ± 0.054 | 4.81 ± 0.22 | 5.54 ± 0.5 | 12.119 ± 0.011 | –
4 | MDMDLNNRLTEDETLEQAYDIFLELAADNLDPADVLLFNLQFEERGGAELFDPAEDWQEHVDFDLNPDFFAEVVIGLADSEDGEINDVFARILLCREKDHKLCHIIWRE [P0A8L7] | 5.64 ± 0.096 | 5.72 ± 0.71 | 7.29 ± 0.12 | 4.35 ± 0.49 | 5.055 ± 0.0098 | 3.64 | 2.74 ± 0.24 | 8.89 | 3.83 | > 8 | 11.2 ± 3.8 | 3.78
5 | MSGARLHTLLPELTTRQSVMVVGAAVIDVIADAYALPWRGCDIELKQQSVNVGGCALNIAVALKRLGIEAGNALPLGQGVWAEMIRNRMAKEGLISLIDNAEGDNGWCLALVEPDGERTFMSFSGVENQWNRQWLARLTVAPGSLLYFSGYQLASPCGELLVEWLEELQDVTPFIDFGPRIGDIPDALLARIMACRPLVSLNRQEAEIAAERFALSAEITTLGKQWQEKFAAPLIVRLDKEGAWYFSNDASGCIPAFPTQVVDTIGAGDSHAGGVLAGLASGLPLADAVLLGNAVASWVVGHRGGDCAPTREELLLAHKNV | 4.46 ± 0.92 | 4.79 ± 0.53 | 6.33 ± 1.1 | 3.62 ± 0.076 | – | 3.76 ± 0.33 | 3.02 ± 0.012 | 6.71 ± 3.7 | 3.67 ± 0.096 | 4.76 ± 0.76 | 11.1 ± 2.4 | –
6 | MDSIHGHEVLNMMIESGEQYTHASLEAAIKARFGEQARFHTCSAEGMTAGELVAFLAAKGKFIPSKDGFSTDQSKICRH | – | 5.53 | – | – | – | – | – | – | – | – | – | –
7 | MTKQVKIYHNPRCSKSRETLNLLKENGVEPEVVLYLETPADAATLRDLLKILGMNSARELMRQKEDLYKELNLADSSLSEEALIQAMVDNPKLMERPIVVANGKARIGRPPEQVLEIVG | – | 5.12 ± 0.37 | 4.7 ± 1.2 | 5.8 | 4.45 ± 0.96 | – | 3.47 ± 0.39 | 7.332 ± 0.073 | 2.58 ± 0.029 | 3.87 ± 0.41 | 8.07 ± 0.2 | 3.65 ± 0.025
8 | MQHETKMENQSWLKKLARRLGPGHVVNLCFIVVLLFSTLLTWREVVVLEDAYISSQRNHLENVANALDKHLQYNVDKLIFLRNGMREALVAPLDFTSLRDAVTEFEQHRDEHAWKIELNRRRTLPVNGVSDALVSEGNLLSRENESLDNEITAALEVGYLLRLAHNSSSMVEQAMYVSRAGFYVSTQPTLFTRNVPTRYYGYVTQPWFIGHSQRENRHRAVRWFTSQPEHASNTEPQVTVSVPVDSNNYWYGVLGMSIPVRTMQQFLRNAIDKNLDGEYQLYDSKLRFLTSSNPDHPTGNIFDPRELALLAQAMEHDTRGGIRMDSRYVSWERLDHFDGVLVRVHTLSEGVRGDFGSISIALTLLWALFTTMLLISWYVIRRMVSNMYVLQSSLQWQAWHDTLTRLYNRGALFEKARPLAKLCQTHQHPFSVIQVDLDHFKAINDRFGHQAGDRVLSHAAGLISSSLRAQDVAGRVGGEEFCVILPGASLTEAAEVAERIRLKLNEKEMLIAKSTTIRISASLGVSSSEETGDYDFEQLQSLADRRLYLAKQAGRNRVFASDNA | – | 6.39 ± 0.087 | – | 7.2 ± 0.57 | – | 5.94 ± 0.3 | 3.34 ± 0.062 | 12.3 ± 0.47 | 6.01 ± 0.53 | 6.56 ± 0.22 | 12.2 ± 0.31 | 6.48 ± 0.5
9 | MSDTTELVDLAVIFPDLEIELKYACADNITGKAIYQQARCLLHKDAITALAKSISIAQLSGLQLVIYDAYRPQQAQAMLWQACPDPQYVVDVTVGSNHSRGTAIDLTLRDEHGNILDMGAGFDEMHERSHAYHPSVPPAAQRNRLLLNAIMTGGGFVGISSEWWHFELPQAASYPLLADQFSCFISPGTQHVS | 5.51 ± 0.24 | 1.97 ± 0.47 | 4.71 ± 0.84 | 1.76 | 3.64 ± 0.33 | 1.89 ± 0.17 | 0.884 | – | 2.72 ± 0.22 | – | – | 2.69 ± 0.14
10 | MALPILLDCDPGHDDAIAIVLALASPELDVKAITSSAGNQTPEKTLRNVLRMLTLLNRTDIPVAGGAVKPLMRELIIADNVHGESGLDGPALPEPTFAPQNCTAVELMAKTLRESAEPVTIVSTGPQTNVALLLNSHPELHSKIARIVIMGGAMGLGNWTPAAEFNIYVDPEAAEIVFQSGIPVVMAGLDVTHKAQIHVEDTERFRAIGNPVSTIVAELLDFFLEYHKDEKWGFVGAPLHDPCTIAWLLKPELFTSVERWVGVETQGKYTQGMTVVDYYYLTGNKPNATVMVDVDRQGFVDLLADRLKFYA | 4.982 ± 0.041 | 5.85 ± 0.58 | 7.25 ± 0.29 | 4.24 ± 0.14 | 4.291 ± 0.039 | 4.236 ± 0.027 | 3.02 ± 0.045 | 10.5 ± 0.72 | 4.76 ± 0.19 | 5.5168 ± 0.0052 | 11.3 ± 0.33 | 4.66 ± 1
11 | MMIRERIEEKLRAAFQPVFLEVVDESYRHNVPAGSESHFKVVLVSDRFTGERFLNRHRMIYSTLAEELSTTVHALALHTYTIKEWEGLQDTVFASPPCRGAGSIA [P0ABE2] | 3.71 ± 0.15 | 2.52 ± 0.14 | 3.19 | – | 1.81 ± 0.13 | 1.55 | 1.53 ± 0.071 | 3.32 | 1.99 ± 0.31 | 3.23 | 5.55 ± 0.6 | –
12 | MLKTIRKHGITLALFAAGSTGLTAAINQMTKTTIAEQASLQQKALFDQVLPAERYNNALAQSCYLVTAPELGKGEHRVYIAKQDDKPVAAVLEATAPDGYSGAIQLLVGADFNGTVLGTRVTEHHETPGLGDKIELRLSDWITHFAGKKISGADDAHWAVKKDGGDFDQFTGATITPRAVVNAVKRAGLYAQTLPAQLSQLPACGE | 5.83 ± 1.8 | 5.7 ± 0.36 | 11.9 ± 0.64 | – | 5.52 ± 1.2 | 6.06 ± 0.48 | 3.07 ± 0.086 | 10.6 ± 1.6 | 5.75 ± 0.07 | 5.82 ± 0.13 | 11.9 ± 0.49 | 6.171 ± 0.022

— the supplement of paper PMC11246515
